The source of these data is US20180194841A1 (Regeneron, published 2018).

Test [1] concerns the target T1, His-tagged human FcγRIIA (H131) (human, UniProt P12318 36-218, limits assumed).
T1 construct: His-tagged, captured on anti-penta-histidine chip; also called hFcyRIIA (H131); FcRγIIA
T1 sequence (looked up): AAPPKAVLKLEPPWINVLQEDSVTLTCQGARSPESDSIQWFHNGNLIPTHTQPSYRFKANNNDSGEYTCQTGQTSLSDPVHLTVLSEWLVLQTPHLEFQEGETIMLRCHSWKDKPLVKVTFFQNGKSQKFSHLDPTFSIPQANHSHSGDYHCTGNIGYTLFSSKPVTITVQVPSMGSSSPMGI
The experiment in a line: SPR steady-state, 25 C, His-tagged FcγR captured, antibody injected. How it is done:
(§1) The anti-CD3×anti-CD20 bispecific antibodies having chimeric constant heavy chain regions Antibody 1 and Antibody 4 were analyzed using Surface Plasmon Resonance (SPR) (Biacore) technology to determine their kinetic binding parameters to human and cynomolgus Fcγ receptors.
(§2) Briefly, SPR experiments were performed at 25° C. on a Biacore T200 instrument employing a carboxymethyl dextran-coated (CM-5) chip. A mouse monoclonal anti-penta-histidine antibody (GE Healthcare) was immobilized on the surface of the CM-5 sensor chip using standard amine-coupling chemistry. […] Kinetic association (kₐ) and dissociation (kd) rate constants were determined by processing and fitting the data to a 1:1 binding model using Scrubber 2.0 curve fitting software. Binding dissociation equilibrium constants (KD) and dissociative half-lives (t_{1/2}) were calculated from the kinetic rate constants as: KD (M)=kd/kₐ; and t_{1/2} (min)=(ln 2/(60*kd).

In test [2] the target is T2, His-tagged human FcγRIIA (R131) (human, UniProt P12318 36-218, limits assumed).
T2 construct: His-tagged, captured on anti-penta-histidine chip; also called human FcyRIIA (R131); FcRγIIA
T2 sequence (looked up): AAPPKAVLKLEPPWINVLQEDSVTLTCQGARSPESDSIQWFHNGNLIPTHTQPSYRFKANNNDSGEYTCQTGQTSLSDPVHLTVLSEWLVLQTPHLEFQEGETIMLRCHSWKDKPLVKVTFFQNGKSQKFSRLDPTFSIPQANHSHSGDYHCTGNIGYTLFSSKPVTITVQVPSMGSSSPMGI
Described as above. The procedure: as §1, §2

Test [3] has as its target T3, His-tagged cynomolgus FcγRIIA (cynomolgus, UniProt A0A140HDN0 28-215).
T3 construct: His-tagged, captured on anti-penta-histidine chip; also called cyno FcyRIIA
T3 sequence: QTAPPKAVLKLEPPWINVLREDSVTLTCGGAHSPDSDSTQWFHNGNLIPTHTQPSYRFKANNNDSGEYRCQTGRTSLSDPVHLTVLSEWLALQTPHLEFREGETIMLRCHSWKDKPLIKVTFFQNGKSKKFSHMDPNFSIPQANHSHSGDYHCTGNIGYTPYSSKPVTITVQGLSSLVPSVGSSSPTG
The test is described as above. How it is done:
as §1, §2

Test [4] concerns the target T4, His-tagged human FcγRIIB (human, UniProt P31994 46-217, limits assumed).
T4 construct: His-tagged, captured on anti-penta-histidine chip; also called human FcyRIIB; FcRγIIB
T4 sequence (looked up): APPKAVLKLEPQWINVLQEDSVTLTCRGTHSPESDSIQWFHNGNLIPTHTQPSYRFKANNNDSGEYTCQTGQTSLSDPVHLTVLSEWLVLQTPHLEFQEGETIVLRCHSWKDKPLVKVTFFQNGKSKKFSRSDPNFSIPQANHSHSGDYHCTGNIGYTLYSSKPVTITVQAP
The description is as above. The procedure:
as §1, §2

Test [5] has as its target T5, His-tagged cynomolgus FcγRIIB (cynomolgus, UniProt A0A140HDP4 43-217).
T5 construct: His-tagged, captured on anti-penta-histidine chip; also called cyno FcyRIIB
T5 sequence: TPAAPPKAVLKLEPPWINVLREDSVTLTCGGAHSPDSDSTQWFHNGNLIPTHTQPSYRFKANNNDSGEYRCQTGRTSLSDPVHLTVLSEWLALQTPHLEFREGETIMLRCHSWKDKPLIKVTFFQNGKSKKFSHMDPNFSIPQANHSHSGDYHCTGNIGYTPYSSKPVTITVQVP
The test is described as above. The procedure:
as §1, §2

For test [6], the target named is T6, His-tagged cynomolgus FcγRIIIA (cynomolgus, UniProt Q8SPW2 17-208, limits assumed).
T6 construct: His-tagged, captured on anti-penta-histidine chip; also called cyno FcyRIIIA
T6 sequence (Q8SPW2 17-208 limits assumed): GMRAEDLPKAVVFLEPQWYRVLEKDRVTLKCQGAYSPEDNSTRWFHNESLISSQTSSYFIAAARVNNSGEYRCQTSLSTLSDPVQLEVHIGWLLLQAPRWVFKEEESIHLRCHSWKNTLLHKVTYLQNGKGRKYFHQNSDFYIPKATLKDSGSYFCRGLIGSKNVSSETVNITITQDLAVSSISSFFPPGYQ
The test is described as above. How it is done:
as §1, §2

For test [7], the target named is T7, human CD20 (on Raji cells, CD3-, CD20+ human B-cell line; on B16F10.9/CD20 cells) (human, UniProt P11836 1-297).
T7 sequence (looked up): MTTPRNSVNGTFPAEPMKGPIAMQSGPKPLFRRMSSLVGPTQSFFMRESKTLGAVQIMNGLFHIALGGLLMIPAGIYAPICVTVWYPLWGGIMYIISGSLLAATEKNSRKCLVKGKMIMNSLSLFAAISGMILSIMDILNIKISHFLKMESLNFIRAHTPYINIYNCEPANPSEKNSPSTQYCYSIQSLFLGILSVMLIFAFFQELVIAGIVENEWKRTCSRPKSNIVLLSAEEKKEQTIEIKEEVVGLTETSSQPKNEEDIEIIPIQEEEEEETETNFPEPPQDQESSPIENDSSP
The experiment in a line: cell-based or functional assay.

The target in test [8] is T7, human CD20 (on Raji cells, CD3-, CD20+ …). Put plainly: cell-based or functional assay. The source holds these as a separate data set.

B1: Antibody 2 (CD3×CD20-chimericFc bispecific antibody) (bispecific antibody)
heavy 1: EVQLVESGGGLVQPGRSLRLSCVASGFTFNDYAMHWVRQAPGKGLEWVSVISWNSDSIGYADSVKGRFTISRDNAKNSLYLQMHSLRAEDTALYYCAKDNHYGSGSYYYYQYGMDVWGQGTTVTVSSASTKGPSVFPLAPSSKSTSGGTAALGCLVKDYFPEPVTVSWNSGALTSGVHTFPAVLQSSGLYSLSSVVTVPSSSLGTQTYICNVNHKPSNTKVDKKVEPKSCDKTHTCPPCPAPPVAGPSVFLFPPKPKDTLMISRTPEVTCVVVDVSQEDPEVQFNWYVDGVEVHNAKTKPREEQFNSTYRVVSVLTVLHQDWLNGKEYKCKVSNKGLPSSIEKTISKAKGQPREPQVYTLPPSRDELTKNQVSLTCLVKGFYPSDIAVEWESNGQPENNYKTTPPVLDSDGSFFLYSKLTVDKSRWQQGNVFSCSVMHEALHNHYTQKSLSLSPGK
heavy 2: EVQLVESGGGLVQPGRSLRLSCAASGFTFDDYTMHWVRQAPGKGLEWVSGISWNSGSIGYADSVKGRFTISRDNAKKSLYLQMNSLRAEDTALYYCAKDNSGYGHYYYGMDVWGQGTTVTVASASTKGPSVFPLAPSSKSTSGGTAALGCLVKDYFPEPVTVSWNSGALTSGVHTFPAVLQSSGLYSLSSVVTVPSSSLGTQTYICNVNHKPSNTKVDKKVEPKSCDKTHTCPPCPAPPVAGPSVFLFPPKPKDTLMISRTPEVTCVVVDVSQEDPEVQFNWYVDGVEVHNAKTKPREEQFNSTYRVVSVLTVLHQDWLNGKEYKCKVSNKGLPSSIEKTISKAKGQPREPQVYTLPPSRDELTKNQVSLTCLVKGFYPSDIAVEWESNGQPENNYKTTPPVLDSDGSFFLYSKLTVDKSRWQQGNVFSCSVMHEALHNRFTQKSLSLSPGK
light: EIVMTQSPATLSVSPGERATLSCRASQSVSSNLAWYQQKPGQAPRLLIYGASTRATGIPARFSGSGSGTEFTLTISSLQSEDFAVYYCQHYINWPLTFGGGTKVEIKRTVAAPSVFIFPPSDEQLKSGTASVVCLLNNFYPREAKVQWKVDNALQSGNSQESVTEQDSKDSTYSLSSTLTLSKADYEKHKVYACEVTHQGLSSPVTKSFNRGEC
notes: also called Ab 2
Consider B1, for which the equilibrium dissociation constant (Kd) (in general, the concentration at which binding is half-saturated) in test [1] was 11.7 µM; in test [2] it was 20.5 µM; in test [3], 23.5 µM; in test [4], 233 µM; in test [5], 14.6 µM; in test [6], 42.4 µM.

B2: Antibody 1 (CD3×CD20-chimericFc bispecific antibody) (bispecific antibody)
heavy 1: EVQLVESGGGLVQPGRSLRLSCVASGFTFNDYAMHWVRQAPGKGLEWVSVISWNSDSIGYADSVKGRFTISRDNAKNSLYLQMHSLRAEDTALYYCAKDNHYGSGSYYYYQYGMDVWGQGTTVTVSSASTKGPSVFPLAPCSRSTSESTAALGCLVKDYFPEPVTVSWNSGALTSGVHTFPAVLQSSGLYSLSSVVTVPSSSLGTKTYTCNVDHKPSNTKVDKRVESKYGPPCPPCPAPPVAGPSVFLFPPKPKDTLMISRTPEVTCVVVDVSQEDPEVQFNWYVDGVEVHNAKTKPREEQFNSTYRVVSVLTVLHQDWLNGKEYKCKVSNKGLPSSIEKTISKAKGQPREPQVYTLPPSQEEMTKNQVSLTCLVKGFYPSDIAVEWESNGQPENNYKTTPPVLDSDGSFFLYSRLTVDKSRWQEGNVFSCSVMHEALHNHYTQKSLSLSLGK
heavy 2: EVQLVESGGGLVQPGRSLRLSCAASGFTFDDYTMHWVRQAPGKGLEWVSGISWNSGSIGYADSVKGRFTISRDNAKKSLYLQMNSLRAEDTALYYCAKDNSGYGHYYYGMDVWGQGTTVTVASASTKGPSVFPLAPCSRSTSESTAALGCLVKDYFPEPVTVSWNSGALTSGVHTFPAVLQSSGLYSLSSVVTVPSSSLGTKTYTCNVDHKPSNTKVDKRVESKYGPPCPPCPAPPVAGPSVFLFPPKPKDTLMISRTPEVTCVVVDVSQEDPEVQFNWYVDGVEVHNAKTKPREEQFNSTYRVVSVLTVLHQDWLNGKEYKCKVSNKGLPSSIEKTISKAKGQPREPQVYTLPPSQEEMTKNQVSLTCLVKGFYPSDIAVEWESNGQPENNYKTTPPVLDSDGSFFLYSRLTVDKSRWQEGNVFSCSVMHEALHNRFTQKSLSLSLGK
light: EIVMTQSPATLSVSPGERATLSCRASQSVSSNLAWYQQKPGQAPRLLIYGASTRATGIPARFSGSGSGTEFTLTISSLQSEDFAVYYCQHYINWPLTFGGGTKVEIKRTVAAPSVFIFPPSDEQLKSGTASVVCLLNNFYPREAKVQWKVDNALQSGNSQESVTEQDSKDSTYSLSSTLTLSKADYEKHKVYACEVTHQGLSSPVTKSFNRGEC
notes: also called Ab 1; Ab1
In the case of B2, in test [7], the “Raji Cytotoxicity Activated Human T-cells [M] (EC50, calcein release)” value is 2.5e-11 M. For the same molecule, in test [7], the “Raji Cytotoxicity Activated Monkey T-cells [M] (EC50, calcein release)” value is 9.1e-12 M. The “% Survival B16F10.9/CD20 cells [M] (EC50, FACS, naive human PBMC effectors, 48 h)” value in test [8] turned out to be 1.95e-11 M. Moreover, the Kd was 12 µM in test [1]; 19.3 µM in test [2]; 23.1 µM in test [3]; 123 µM in test [4]; 13.9 µM in test [5]; 66.3 µM in test [6].
